Results on one protein are retold here after article PMC2675908, “Direct Observation of ATP-Induced Conformational Changes in Single P2X4 Receptors” (PLOS Biology, 2009).

This data set concerns the molecule itself. As to the kind of experiment: native gel or EMSA; native PAGE, 4%-13% acrylamide gradient gel, sample buffer with 1% deoxycholate, silver staining; purified P2X4R. A general note: Mobility shift assays separate free from complexed probe on a gel.

One may read the stoichiometry N as the number of molecules, sites or subunits per partner or assembly.

B1: rat P2X4 receptor (receptor, UniProt P51577 1-388, looked up)
chain: MAGCCSVLGSFLFEYDTPRIVLIRSRKVGLMNRAVQLLILAYVIGWVFVWEKGYQETDSVVSSVTTKAKGVAVTNTSQLGFRIWDVADYVIPAQEENSLFIMTNMIVTVNQTQSTCPEIPDKTSICNSDADCTPGSVDTHSSGVATGRCVPFNESVKTCEVAAWCPVENDVGVPTPAFLKAAENFTLLVKNNIWYPKFNFSKRNILPNITTSYLKSCIYNAQTDPFCPIFRLGTIVEDAGHSFQEMAVEGGIMGIQIKWDCNLDRAASLCLPRYSFRRLDTRDLEHNVSPGYNFRFAKYYRDLAGKEQRTLTKAYGIRFDIIVFGKAGKFDIIPTMINVGSGLALLGVATVLCDVIVLYCMKKKYYYRDKKYKYVEDYEQGLSGEMNQ
notes: P2X4 receptor (P2X purinoceptor 4), rat; cDNA encoding rat P2X4R subcloned into pcDNA3.1; Homotrimer by native PAGE (about 150 kDa; monomer about 50 kDa in SDS-PAGE) and by AFM; No tag is mentioned; 1321N1 cells are said not to express P2XRs of their own; also called P2X4Rs; source: human 1321N1 astrocytoma cells, stably transfected (pcDNA3.1)
B1: the “stoichiometry N” value was determined as 3.
